Our source for the CDC活性 EC50 (Presto Blue, complement) values is patent CN117567617A.

This experiment addresses 人CLDN18.2 (human claudin18.2) (human) (UniProt P56856). Briefly: cell-based or functional assay.

B1: 全人源抗CLDN18.2抗体2A2 (CLDN-BC-2A2-hH1) (antibody, V domains shown)
VH: QVQLQQWGPGLVKPSQTLSLTCTVSGGSISSVGYYWSWIRQHPGQGLEWVGYIYYSGGTYYNPSLKSRVTISLDTSKNQFSLKLTSVTAADTAVYYCASYGSVSPYYYYYGMDVWGQGTTVTVSS
VL: DIVMTQSPSSVSASVGDRVTITCRASQGISSWLAWYQQKPGKAPNLLISAASSLQSGVPSRFSGNGSGTDFTLTISSLQPEDFASYYCQQANSFPITFGQGTRLEIK
In turn, B1 displayed a CDC活性 EC50 (Presto Blue, complement) of 10.9 µg/mL.
